# Laboratory results reported in the supplement of paper PMC9112550, “Optimization of the antimicrobial peptide Bac7 by deep mutational scanning” (BMC Biology, 2022).
# Tested on: Escherichia coli TOP10
# Test: shrunken log2 fold change of peptide-encoding DNA abundance (4.5 h post-induction vs induction); higher = less antimicrobial activity (less host growth inhibition)
# Settings: time post-induction: 4.5 h; library: site-saturation at positions 5, 18, 19, 20
# 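Further: peptides expressed intracellularly from a pBAD plasmid library in pooled LB shake-flask culture, induced with 0.3% L-arabinose, DNA abundance read by NGS, three biological replicates, DESeq2 with apeglm shrinkage.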
row,Sequence,shrunken log2 fold change
1,RRIRWRPPRLPRPRPRPAQCPRP,-0.00191
2,RRIRIRPPRLPRPRPRPNFDPRP,0.235
3,RRIRHRPPRLPRPRPRPRLMPRP,0.121
4,RRIRHRPPRLPRPRPRPKIDPRP,-0.0926
5,RRIRQRPPRLPRPRPRPGTGPRP,-0.121
6,RRIRARPPRLPRPRPRPAPNPRP,0.737
7,RRIRNRPPRLPRPRPRPLMQPRP,-0.0301
8,RRIRLRPPRLPRPRPRPNNNPRP,-0.673
9,RRIRLRPPRLPRPRPRPHFQPRP,-0.131
10,RRIRQRPPRLPRPRPRPWSQPRP,0.0535
11,RRIRARPPRLPRPRPRPQVIPRP,-0.109
12,RRIRERPPRLPRPRPRPQMYPRP,-0.337
13,RRIRARPPRLPRPRPRPKANPRP,0.297
14,RRIRRRPPRLPRPRPRPHRHPRP,0.0704
15,RRIRMRPPRLPRPRPRPHIHPRP,-0.111
16,RRIRLRPPRLPRPRPRPGLRPRP,0.234
17,RRIRVRPPRLPRPRPRPLAGPRP,0.334
18,RRIRSRPPRLPRPRPRPHASPRP,0.188
19,RRIRRRPPRLPRPRPRPYPMPRP,-0.187
20,RRIRARPPRLPRPRPRPQQTPRP,0.141
21,RRIRTRPPRLPRPRPRPGFSPRP,-0.016
22,RRIRDRPPRLPRPRPRPQRKPRP,0.0137

row,Sequence,shrunken log2 fold change
1,RRIRSRPPRLPRPRPRPKEWPRP,-0.0193
2,RRIRRRPPRLPRPRPRPDMGPRP,0.00408
3,RRIRCRPPRLPRPRPRPTVTPRP,-0.208
4,RRIRCRPPRLPRPRPRPMNQPRP,-0.248
5,RRIRERPPRLPRPRPRPMTIPRP,-0.155
6,RRIRWRPPRLPRPRPRPTSVPRP,0.233
7,RRIRNRPPRLPRPRPRPEHWPRP,-0.0343
8,RRIRNRPPRLPRPRPRPMPNPRP,-0.0406
9,RRIRRRPPRLPRPRPRPMKQPRP,0.134
10,RRIRWRPPRLPRPRPRPPHNPRP,0.527
11,RRIRHRPPRLPRPRPRPEALPRP,-0.0062
12,RRIRIRPPRLPRPRPRPPMDPRP,-0.372
13,RRIRPRPPRLPRPRPRPCEQPRP,0.102
14,RRIRPRPPRLPRPRPRPLYLPRP,-0.625
15,RRIRFRPPRLPRPRPRPHSWPRP,-0.0147
16,RRIRQRPPRLPRPRPRPGGSPRP,-0.141
17,RRIRMRPPRLPRPRPRPANHPRP,0.0312
18,RRIRYRPPRLPRPRPRPDVSPRP,-0.248
19,RRIRHRPPRLPRPRPRPKVVPRP,-0.00398
20,RRIRVRPPRLPRPRPRPEHTPRP,0.224
21,RRIRIRPPRLPRPRPRPLVSPRP,-0.244
22,RRIRHRPPRLPRPRPRPGNIPRP,-0.227

row,Sequence,shrunken log2 fold change
1,RRIRNRPPRLPRPRPRPKEAPRP,-0.00208
2,RRIRPRPPRLPRPRPRPHEWPRP,0.278
3,RRIRVRPPRLPRPRPRPFHCPRP,-0.13
4,RRIRKRPPRLPRPRPRPLMIPRP,-0.171
5,RRIRNRPPRLPRPRPRPQHRPRP,-0.215
6,RRIRARPPRLPRPRPRPSCPPRP,0.131
7,RRIRDRPPRLPRPRPRPTQGPRP,0.797
8,RRIRARPPRLPRPRPRPKLWPRP,1
9,RRIRHRPPRLPRPRPRPTMSPRP,-0.11
10,RRIRWRPPRLPRPRPRPPASPRP,0.319
11,RRIRIRPPRLPRPRPRPKWLPRP,0.0546
12,RRIRFRPPRLPRPRPRPPWQPRP,0.361
13,RRIRSRPPRLPRPRPRPMVRPRP,0.00927
14,RRIRTRPPRLPRPRPRPSPMPRP,-0.163
15,RRIRERPPRLPRPRPRPWMIPRP,-0.616
16,RRIRFRPPRLPRPRPRPEELPRP,0.0201
17,RRIRYRPPRLPRPRPRPHETPRP,-0.0345
18,RRIRLRPPRLPRPRPRPTLCPRP,0.163
19,RRIRRRPPRLPRPRPRPAFGPRP,0.348
20,RRIRARPPRLPRPRPRPHDWPRP,0.295
21,RRIRERPPRLPRPRPRPEITPRP,-0.045
22,RRIRFRPPRLPRPRPRPYCHPRP,-0.687

row,Sequence,shrunken log2 fold change
1,RRIRQRPPRLPRPRPRPPHPPRP,0.548
2,RRIRARPPRLPRPRPRPDWSPRP,0.048
3,RRIRIRPPRLPRPRPRPREEPRP,0.0171
4,RRIRYRPPRLPRPRPRPCKPPRP,-0.00151
5,RRIRARPPRLPRPRPRPGGLPRP,0.936
6,RRIRVRPPRLPRPRPRPMNHPRP,-0.194
7,RRIRERPPRLPRPRPRPTMRPRP,0.732
8,RRIRMRPPRLPRPRPRPQFLPRP,-0.106
9,RRIRVRPPRLPRPRPRPWFMPRP,-0.537
10,RRIRRRPPRLPRPRPRPSQNPRP,0.0754
11,RRIRMRPPRLPRPRPRPCYQPRP,2.31
12,RRIRFRPPRLPRPRPRPHPTPRP,-0.133
13,RRIRIRPPRLPRPRPRPMRNPRP,0.167
14,RRIRGRPPRLPRPRPRPMSAPRP,0.702
15,RRIRWRPPRLPRPRPRPAMCPRP,0.0884
16,RRIRFRPPRLPRPRPRPVLCPRP,-0.221
17,RRIRTRPPRLPRPRPRPYFQPRP,-0.587
18,RRIRFRPPRLPRPRPRPIRHPRP,-0.355
19,RRIRHRPPRLPRPRPRPWSDPRP,-0.138
20,RRIRQRPPRLPRPRPRPQICPRP,-0.229
21,RRIRSRPPRLPRPRPRPNWGPRP,-0.0911
22,RRIRNRPPRLPRPRPRPHSRPRP,-0.0742

row,Sequence,shrunken log2 fold change
1,RRIRARPPRLPRPRPRPVTWPRP,0.291
2,RRIRARPPRLPRPRPRPRSCPRP,0.306
3,RRIRERPPRLPRPRPRPTGAPRP,0.316
4,RRIRHRPPRLPRPRPRPYRPPRP,-0.115
5,RRIRMRPPRLPRPRPRPYAWPRP,-0.107
6,RRIRCRPPRLPRPRPRPWWWPRP,-0.1
7,RRIRVRPPRLPRPRPRPREEPRP,0.493
8,RRIRGRPPRLPRPRPRPPNVPRP,0.431
9,RRIRDRPPRLPRPRPRPMHQPRP,0.126
10,RRIRFRPPRLPRPRPRPLQMPRP,0.236
11,RRIRHRPPRLPRPRPRPWDIPRP,0.0726
12,RRIRFRPPRLPRPRPRPKETPRP,-0.0433
13,RRIRCRPPRLPRPRPRPVRHPRP,0.403
14,RRIRWRPPRLPRPRPRPHQYPRP,-0.29
15,RRIRPRPPRLPRPRPRPDTTPRP,-0.156
16,RRIRGRPPRLPRPRPRPMKQPRP,0.316
17,RRIRCRPPRLPRPRPRPGCVPRP,0.248
18,RRIRWRPPRLPRPRPRPQTPPRP,1.07
19,RRIRGRPPRLPRPRPRPGEKPRP,1.4
20,RRIRHRPPRLPRPRPRPSINPRP,-0.605
21,RRIRCRPPRLPRPRPRPIQKPRP,-0.127
